# Measured values taken from patent US20220106580A1.
# Columns and labels:
# asialofetuin (ASF) [1] = biological target: asialofetuin (ASF) (UniProt P12763); assay: cell-based or functional assay
# asialofetuin (ASF) [2] = biological target: asialofetuin (ASF) (UniProt P12763); assay: saturation binding of GFP fluorescence to ASF adsorbed onto plastic, [GFP]=0-10 µM
# UniProt P12763, sequence (P12763 19-359 limits assumed): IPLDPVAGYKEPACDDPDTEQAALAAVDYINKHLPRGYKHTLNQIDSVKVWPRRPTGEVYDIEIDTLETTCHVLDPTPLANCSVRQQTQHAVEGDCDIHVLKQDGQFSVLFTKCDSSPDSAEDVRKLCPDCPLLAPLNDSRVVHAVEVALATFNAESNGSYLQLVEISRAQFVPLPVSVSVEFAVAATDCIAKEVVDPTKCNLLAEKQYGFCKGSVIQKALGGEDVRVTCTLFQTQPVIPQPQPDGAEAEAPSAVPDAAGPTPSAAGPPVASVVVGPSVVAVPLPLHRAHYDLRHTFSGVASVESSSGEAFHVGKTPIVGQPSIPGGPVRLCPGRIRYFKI
WT-G3 concentration at which insoluble aggregates with 7 uM ASF are detected at 420 nm (asialofetuin (ASF) [1]) [µM],absorbance of 10 uM WT-G3 plus 7 uM ASF in PBS (asialofetuin (ASF) [1]) [absorbance],concentration approaching saturation (asialofetuin (ASF) [2]) [µM],Substance
> 2.5,0.4,–,wild-type galectin-3 (WT-G3) (from UniProt P17931 2-250)
–,–,2,GFP-TT-G3 (superfolder green fluorescent protein - TriggerTrimer coiled-coil - human galectin-3; trimeric nanoassembly)
